Data on 29 substances can be found in patent publication US8143216B2, “Modified human growth hormone” (Ambrx, Inc., priority 2004, dated 2012).

Usually kon stands for the second-order rate constant of association. Low readings indicate slow association, high ones fast association. The term Cmax denotes the peak of the concentration-time curve. For orientation: MRT means the average time that molecules of a dose stay in the body.

One series concerns the target T1, rat GHR ECD (L43R) (Rattus norvegicus, UniProt P16310, L61R).
T1 construct: (GHR ECD, amino acids S29-T238) was cloned into pET20b vector; made in house
T1 sequence (P16310 47-256 L61R): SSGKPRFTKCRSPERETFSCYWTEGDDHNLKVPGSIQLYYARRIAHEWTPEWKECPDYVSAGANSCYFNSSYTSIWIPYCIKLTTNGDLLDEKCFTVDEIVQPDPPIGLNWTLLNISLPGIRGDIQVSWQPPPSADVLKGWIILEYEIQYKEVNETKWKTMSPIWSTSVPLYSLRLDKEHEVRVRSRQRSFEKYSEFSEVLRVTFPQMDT
As to the kind of experiment: Biacore analysis of binding of GH to GHR. Conditions: rat GHR ECD (L43R) immobilized on a CM5 chip, bivalent analyte model. The method, then: Cloning and purification of rat GH receptor The extracellular domain of rat GH receptor (GHR ECD, amino acids S29-T238) was cloned into pET20b vector (Novagen) between Nde I and Hind III sites in frame with C-terminal 6H is tag. A mutation of L43 to R was introduced to further approximate the human GH receptor binding site (Souza et al., Proc Natl Acad Sci USA. (1995) 92(4): 959-63). Recombinant protein was produced in BL21 (DE3) E. coli cells (Novagen) by induction with 0.4 mM IPTG at 30° C. for 4-5 hours. After lysing the cells, the pellet was washed four times by resuspending in a dounce with 30 mL of 50 mM Tris, pH 7.6, 100 mM NaCl, 1 mM EDTA, 1% Triton X-100, and twice with the same buffer without Triton X-100. […] Refolding was accomplished by means of passing an aliquot of the inclusion body solution through a S100 (Sigma) gel filtration column, equilibrated with 50 mM Tris, pH 7.8, 1 M L-arginine, 3.7 mM cystamine, 6.5 mM cysteamine. Fractions containing soluble protein were combined and dialyzed against 50 mM Tris, pH 7.6, 200 mM NaCl, 10% glycerol. The sample was briefly centrifuged to remove any precipitate and incubated with an aliquot of Talon resin (Clontech), according to manufacturer's instructions. After washing the resin with 20 volumes of dialysis buffer supplemented with 5 mM imidazole, protein was eluted with 120 mM imidazole in dialysis buffer. Finally, the sample was dialyzed overnight against 50 mM Tris, pH 7.6, 30 mM NaCl, 1 mM EDTA, 10% glycerol, centrifuged briefly to remove any precipitate, adjusted to 20% glycerol final concentration, aliquoted and stored at −80 C. Concentration of the protein was measured by OD(280) using calculated extinction coefficient of ε=65,700 M^−1*cm^−1.
Approximately 600-800 RUs of soluble GHR ECD was immobilized on a Biacore™ CM5 chip, using a standard amine-coupling procedure, as recommended by the manufacturer. […] See, e.g., Cunningham et al. J Mol. Biol. (1993) 234(3): 554-63 and Wells J A. Proc Natl Acad Sci USA (1996) 93(1): 1-6).
Various concentrations of wild type or mutant GH (0.1-300 nM) in HBS-EP buffer (Biacore™, Pharmacia) were injected over the GHR surface at a flow rate of 40 μl/min for 4-5 minutes, and dissociation was monitored for 15 minutes post-injection. The surface was regenerated by a 15 second pulse of 4.5M MgCl2. […] Reference cell with no receptor immobilized was used to subtract any buffer bulk effects and non-specific binding.
Kinetic binding data obtained from GH titration experiments was processed with BiaEvaluation 4.1 software (BIACORE™). […] Equilibrium dissociation constants (Kd) were calculated as ratios of individual rate constants (koff/kon).
(Surface plasmon resonance follows binding to a sensor surface in real time, without labels.)
“A155pAF: hGH with p-acetyl-phenylalanine (pAF) substituted for A155” had a kon of 580000 M⁻¹ s⁻¹.

In turn, “E88pAF: hGH with p-acetyl-phenylalanine (pAF) substituted for E88” came in with a kon of 680000 M⁻¹ s⁻¹.

The substance “F92pAF-5KD PEG: hGH comprising p-acetyl-phenylalanine at position 92 covalently linked to a 5 kDa PEG molecule” registered a kon of 620000 M⁻¹ s⁻¹.

With “F92pAF-20KD PEG: hGH comprising p-acetyl-phenylalanine at position 92 covalently linked to a 20 kDa PEG molecule”, the kon amounted to 170000 M⁻¹ s⁻¹.

“F92pAF-30KD PEG: His-tagged hGH polypeptide comprising p-acetyl-phenylalanine at position 92 covalently linked to 30 kDa PEG” gave a kon of 130000 M⁻¹ s⁻¹.

The substance “F92pAF: hGH with p-acetyl-phenylalanine (pAF) substituted for F92” came in with a kon of 860000 M⁻¹ s⁻¹.

For “F139pAF: hGH with p-acetyl-phenylalanine (pAF) substituted for F139”, the kon turned out to be 680000 M⁻¹ s⁻¹.

Turning to “G131pAF: hGH with p-acetyl-phenylalanine (pAF) substituted for G131”, the kon turned out to be 600000 M⁻¹ s⁻¹.

With “G136pAF: hGH with p-acetyl-phenylalanine (pAF) substituted for G136”, the kon stood at 620000 M⁻¹ s⁻¹.

In turn, “K140pAF: hGH with p-acetyl-phenylalanine (pAF) substituted for K140” returned a kon of 720000 M⁻¹ s⁻¹.

With “K145pAF: hGH with p-acetyl-phenylalanine (pAF) substituted for K145”, the kon is 640000 M⁻¹ s⁻¹.

“N12pAF: hGH with p-acetyl-phenylalanine (pAF) substituted for N12” showed a kon of 1.25e+06 M⁻¹ s⁻¹.

Substance “N99pAF: hGH with p-acetyl-phenylalanine (pAF) substituted for N99” registered a kon of 220000 M⁻¹ s⁻¹.

As for “P133pAF: hGH with p-acetyl-phenylalanine (pAF) substituted for P133”, the kon is 640000 M⁻¹ s⁻¹.

In turn, “Q91pAF: hGH with p-acetyl-phenylalanine (pAF) substituted for Q91” yielded a kon of 660000 M⁻¹ s⁻¹.

The substance “R16pAF: hGH with p-acetyl-phenylalanine (pAF) substituted for R16” came in with a kon of 680000 M⁻¹ s⁻¹.

Regarding “R94pAF: hGH with p-acetyl-phenylalanine (pAF) substituted for R94”, the kon turned out to be 560000 M⁻¹ s⁻¹.

“R134pAF-5KD PEG: hGH comprising p-acetyl-phenylalanine at position 134 linked to 5 kDa PEG” yielded a kon of 680000 M⁻¹ s⁻¹.

In turn, “R134pAF-30KD PEG: hGH polypeptide comprising p-acetyl-phenylalanine at position 134 covalently linked to 30 kDa PEG” showed a kon of 70000 M⁻¹ s⁻¹.

With “R134pAF: hGH with p-acetyl-phenylalanine (pAF) substituted for R134”, the kon came out at 840000 M⁻¹ s⁻¹.

Consider “S95pAF: hGH with p-acetyl-phenylalanine (pAF) substituted for S95”, for which the on-rate constant (kon) was 70000 M⁻¹ s⁻¹.

“T135pAF: hGH with p-acetyl-phenylalanine (pAF) substituted for T135” had a kon of 720000 M⁻¹ s⁻¹.

Regarding “Y35pAF: hGH with p-acetyl-phenylalanine (pAF) substituted for Y35”, the kon came to 780000 M⁻¹ s⁻¹.

Take “Y103pAF: hGH with p-acetyl-phenylalanine (pAF) substituted for Y103”: the kon is roughly 6000 M⁻¹ s⁻¹.

With “Y111pAF: hGH with p-acetyl-phenylalanine (pAF) substituted for Y111”, the kon stood at 840000 M⁻¹ s⁻¹.

“Y143pAF: hGH with p-acetyl-phenylalanine (pAF) substituted for Y143” had a kon of 780000 M⁻¹ s⁻¹.

Test system in another series: not listed separately
As to the kind of experiment: Pharmacokinetic studies, single s.c. dose in normal male Sprague-Dawley rats. Conditions: single bolus s.c. dose of 1 mg/kg in rats, FIG. 15. The format is in vivo, rat. The method, then:
Pharmacokinetic properties of PEG-modified growth hormone compounds were compared to each other and to nonPEGylated growth hormone in male Sprague-Dawley rats (261-425 g) obtained from Charles River Laboratories. Catheters were surgically installed into the carotid artery for blood collection. Following successful catheter installation, animals were assigned to treatment groups (three to six per group) prior to dosing. Animals were dosed subcutaneously with 1 mg/kg of compound in a dose volume of 0.41-0.55 ml/kg. Blood samples were collected at various time points via the indwelling catheter and into EDTA-coated microfuge tubes. Plasma was collected after centrifugation, and stored at −80° C. until analysis. Compound concentrations were measured using antibody sandwich growth hormone ELISA kits from either BioSource International (Camarillo, Calif.) or Diagnostic Systems Laboratories (Webster, Tex.). Concentrations were calculated using standards corresponding to the analog that was dosed. Pharmacokinetic parameters were estimated using the modeling program WinNonlin (Pharsight, version 4.1). Noncompartmental analysis with linear-up/log-down trapezoidal integration was used, and concentration data was uniformly weighted.
Rats (n=3-4 per group) were given a single bolus dose of 1 mg/kg hGH wild-type protein (WHO hGH), His-tagged hGH polypeptide (his-hGH), or His-tagged hGH polypeptide comprising non-natural amino acid p-acetyl-phenylalanine at position 92 covalently linked to 30 kDa PEG (30 KPEG-pAF92(his)hGH). Plasma samples were taken over the indicated time intervals and assayed for injected compound as described.
Rats (n=3-6 per group) were given a single bolus dose of 1 mg/kg protein. hGH polypeptides comprising non-natural amino acid p-acetyl-phenylalanine covalently linked to 30 kDa PEG at each of six different positions were compared to WHO hGH and (his)-hGH. Plasma samples were taken over the indicated time intervals and assayed for injected compound as described. Concentration vs time curves were evaluated by noncompartmental analysis (Pharsight, version 4.1). Values shown are averages (+/− standard deviation). Cmax: maximum concentration; terminal t1/2: terminal half-life; AUC0->inf: area under the concentration-time curve extrapolated to infinity; MRT: mean residence time; Cl/f: apparent total, plasma clearance; Vz/f: apparent volume of distribution during terminal phase.
“F92pAF-30KD PEG: His-tagged hGH polypeptide comprising p-acetyl-phenylalanine at position 92 covalently linked to 30 kDa PEG”: the “circulation (plasma concentrations) compared to control hGH” value is “dramatically extended circulation compared to control hGH”.

The series is the same for the next values; noted with them: single-dose 1 mg/kg bolus s.c., normal male Sprague-Dawley rats.
As to “F92pAF-30KD PEG: His-tagged hGH polypeptide comprising p-acetyl-phenylalanine at position 92 covalently linked to 30 kDa PEG”, the “AUC0−>inf” value is reported as 10,539 ng × hr/ml, the Cl/f came out at 0.135 L/h/kg, the Cmax was 0.663 µg/mL and the MRT came out at 15.05 h. Moreover, the “Terminal t1/2” value is reported as 4.51 h.

Turning to “G131pAF-30KPEG: hGH polypeptide comprising p-acetyl-phenylalanine at position 131 covalently linked to 30 kDa PEG”, the “AUC0−>inf” value is given as 6,978 ng × hr/ml, the Cl/f was 0.161 L/h/kg, the Cmax came to 0.497 µg/mL and the MRT came to 14.28 h. Besides, the “Terminal t1/2” value is 4.41 h.

As to “K145pAF-30KPEG: hGH polypeptide comprising p-acetyl-phenylalanine at position 145 covalently linked to 30 kDa PEG”, the “AUC0−>inf” value is 13,162 ng × hr/ml, the Cl/f came out at 0.088 L/h/kg, the Cmax amounted to 0.634 µg/mL and the MRT is listed as 17.82 h. Besides, the “Terminal t1/2” value came to 5.87 h.

With “R134pAF-30KD PEG: hGH polypeptide comprising p-acetyl-phenylalanine at position 134 covalently linked to 30 kDa PEG”, the “AUC0−>inf” value is given as 7,304 ng × hr/ml, the Cl/f was found to be 0.151 L/h/kg, the Cmax was determined as 0.566 µg/mL and the MRT turned out to be 12.15 h. In addition, the “Terminal t1/2” value stood at 4.36 h.

For “Y143pAF-30KPEG: hGH polypeptide comprising p-acetyl-phenylalanine at position 143 covalently linked to 30 kDa PEG”, the “AUC0−>inf” value was 17,494 ng × hr/ml, the Cl/f amounted to 0.059 L/h/kg, the Cmax is 0.803 µg/mL and the MRT is 18.83 h. The “Terminal t1/2” value is listed as 6.02 h.
